Test results reported in patent US20250382372A1 (OXFORD UNIVERSITY INNOVATION, published 2025).
Changes are numbered by the printed parent chain.

B1: OX16 scFv (scFv)
scFv: DAEVQLVESGGGLVKPGGSLKLSCAASGFTFSNYAMSWVRQTPEKRLEWVAAINSNGGSAYYPDTVKDRFTISRDNAKNTLYLQMSSLRSEDTALYYCARRFYYDYGWFAYWGQGTLVTVSSGGGGSGGGGSGGGGSDIVLTQSPASLSASVGETVTITCRASENIDSYLAWYQQKQGKSPQLLVYAATLLADGVPSRFSGSGSGTQYSLKINSLQSEDVARYYCQHYYSSPWTFGGGTKLEIKSGLEVLFQGPGSGLNDIFEAQKIEWHEHHHHHH
modifications: biotinylated on the C-terminal biotinylation tag (SPR only)
notes: The entry holds the leader, VH, Gly-Ser linker, VL, 3C site, BirA tag and His tag; For crystallisation the BirA and His tags were cut off with 3C protease; also called 16 ScFv full; single chain variable construct of OX16
B2: 77A (VR11851) (antibody, V domains shown)
VH: QSVEESGGRLVTPGTPLTLTCTVSGFSLSSYAMSWVRQAPGKGLEWIGIISSSGTTYYASWAKGRFTISKTSTTVDLKITSPTTEDTATYFCARVDYYSSGWGGLWGPGTLVTVSS
VL: AVEMTQTPASMSAAVGGTVTIKCQASEDIYSNLAWYQQKPGQPPKLLIYGASTLASGVPSRFKGSGSGTEYTLTISGVQCDDAATYYCQCTYDTSSYGNTFGGGTEMVVE
notes: V regions were 'cloned as either rabbit or mouse full length antibodies'; also called OX77a; antibody 77a
B3: 111 (VR12113) (antibody, V domains shown)
VH: QSVEESGGRLVTPGTPLTLTCTASGFSLSTYAMSWVRQAPGKGLEWIGIISSSGSTYYASWAKGRFTISKTSTTVDLKITSPTTEDTATYFCARETWYWLDLWGQGTLVTVSS
VL: B2 VL with M11V, K22N, T91A, T94S, N99T, T100P, M107V, E110K
notes: also called OX111
B4: 116 (VR12117) (antibody, V domains shown)
VH: QSVEESGGRLVTPGTPLTLTCTVSGFSLSNYAMSWVRQAPGKGLEWIGIIYTTGFTYYASWVKGRFTISKTSTTVDLKITSPTTEDTATYFCARGLATYVSPPTRLDLWGQGTLVTVSS
VL: AQVLTQTPSPVSAAVGGTVTINCQASQSIYNSKNLAWYQQKPGQPPKLLIYSASTLASGVPSRFKGSGSGTQFTLTISDLECDDAATYYCQGEFSCSSVDCATFGGGTEVVVK
notes: also called OX116
B5: 110 (VR12112) (antibody, V domains shown)
VH: QSVEESGGRLVTPGTPLTLTCTVSGFSLSSYAMIWVRQAPGKGLEWIGIINSSDNTHYATWAKGRFTISKTSTTVDLKITSPTTEDTATYFCARDPYDYGYGWYFDLWGPGTLVTVSS
VL: AQVLTQTPSPVSAAVGGTVTINCQASQSVFNNKNLAWYQQKPGQPPKLLIYKASTLASGVSSRFKGSGSGTQFALTISGVQCDDAATYYCQGEFSCSSTDCVTFGGGTEVVVK
notes: V regions were 'cloned as either rabbit or mouse full length antibodies'; also called OX110; antibody 110
B6: OX116 scFv (scFv)
scFv: DAQSVEESGGRLVTPGTPLTLTCTVSGFSLSNYAMSWVRQAPGKGLEWIGIIYTTGFTYYASWVKGRFTISKTSTTVDLKITSPTTEDTATYFCARGLATYVSPPTRLDLWGQGTLVTVSSGGGGSGGGGSGGGGSAQVLTQTPSPVSAAVGGTVTINCQASQSIYNSKNLAWYQQKPGQPPKLLIYSASTLASGVPSRFKGSGSGTQFTLTISDLESDDAATYYCQGEFSCSSVDCATFGGGTEVVVKSGLEVLFQGPGSGLNDIFEAQKIEWHEHHHHHH
modifications: biotinylated on the C-terminal biotinylation tag (SPR only)
notes: The entry holds the leader, VH, linker, VL, 3C site, BirA tag and His tag; For crystallisation the BirA and His tags were cut off with 3C protease; also called OX116 Ab fragment

How the values were obtained:
[1] = target: human CD1a expressed on cells (human) (UniProt P06126); experiment: flow cytometry, ear skin cells of a CD1a transgenic mouse given isotype control (row 'CD1a : iso'), stained with anti-CD1a HI149; cell population not named on the sheet
[2] = target: human CD1a expressed on cells (human) (UniProt P06126); experiment: flow cytometry, ear skin cells of a CD1a transgenic mouse given antibody 116 (100 ug i.p. on days 0, 2 and 4; row 'CD1a : OX116'), stained on day 5 with anti-CD1a HI149; the cloud of cells lies at the lower edge of the gate
[3] = target: human CD1a expressed on cells (human) (UniProt P06126); experiment: flow cytometry, ear skin cells of a CD1a transgenic mouse given antibody 116 (100 ug i.p. on days 0, 2 and 4; panel 'CD1a : OX116'), stained on day 5 with anti-CD1a SK9
[4] = target: human CD1a expressed on cells (human) (UniProt P06126); experiment: flow cytometry, ear skin cells of a CD1a transgenic mouse given isotype control (panel 'CD1a : iso'), stained with anti-CD1a SK9; cell population not named on the sheet
[5] = target: T1, Human CD1a/beta2m heterodimer (HEK293S, deglycosylated, zippers and tags cleaved) (human, UniProt P61769 21-119); experiment: SPR (Biacore 3000): biotinylated OX16 scFv on a streptavidin chip, CD1a-GD3 (CD1a loaded with GD3 ganglioside) injected up to 1000 nM; 1:1 specific binding fit; unit from the legend paragraph 293
T1 construct: Protein of the crystal structures and of the Biacore 3000 SPR experiments; Carries endogenous lipids (CD1a-endo) or a loaded lipid (named under assay); also called CD1a-endo; CD1a loaded with a specific lipid
Procedure: (§1) Depending on the experiment biotinylated scFv molecules were coupled onto the chip surface until a total of 150 or 1000 response units per flow cell were achieved. […] Each lipid was solubilised up to 5-10 mM in 20 mM Tris pH8, 150 mM NaCl and 0.5% CHAPS. CD1a-endo was incubated at room temperature overnight with 15-40× molar excess of lipid. The mixture was subsequently purified by anion exchange chromatography using a MonoQ column (GE Healthcare). Fractions corresponding to lipid-loaded CD1a were pooled together and up-concentrated to 5 μM. Serial dilutions of CD1a up to a maximum concentration of 1 μM were injected for 60 s at 25 C in 20 mM Tris pH8, 150 mM NaCl buffer. The dissociation time between the injections was between 5 minutes up to 1 h. […] Each injection cycle consisted of a 60 s injection of 1 μM CD1a alone immediately followed by increasing concentrations of TCRs (0 to 50 μM) supplemented with 100 nM CD1a to prevent further dissociation of CD1a from the coupled Ab fragment. The runs were performed at 25 C in 20 mM Tris pH8, 150 mM NaCl, 0.5% BSA buffer. In all SPR experiments relative binding response was calculated by subtracting the non-specific response on a reference cell, where an unrelated protein was coupled. The binding curves were obtained by fitting the measured response to a 1:1 specific binding model in GraphPad.

[6] = target: T1, Human CD1a/beta2m heterodimer (HEK293S, …); experiment: SPR (Biacore 3000): biotinylated OX16 scFv on a streptavidin chip, CD1a-LPC (CD1a loaded with lysophosphatidylcholine) injected up to 1000 nM; 1:1 specific binding fit; unit from the legend paragraph 293
Procedure: as §1

[7] = target: T1, Human CD1a/beta2m heterodimer (HEK293S, …); experiment: SPR (Biacore 3000): biotinylated OX16 scFv on a streptavidin chip, CD1a-endo (CD1a with endogenous lipids) injected up to 1000 nM; response fitted to a 1:1 specific binding model; unit from the legend paragraph 293
Procedure: as §1

[8] = target: T1, Human CD1a/beta2m heterodimer (HEK293S, …); experiment: SPR (Biacore 3000): biotinylated OX16 scFv on a streptavidin chip, CD1a-SM24:1 (CD1a loaded with sphingomyelin 24:1) injected up to 1000 nM; 1:1 specific binding fit; unit from the legend paragraph 293
Procedure: as §1

[9] = target: Cynomolgus monkey CD1a expressed on HEK-293 cells (Cynomolgus monkey); experiment: flow, HEK-293, Ab 0.1 µg/ml
[10] = target: T2, human CD1b expressed on HEK-293 cells (human, UniProt P29016 18-333; P61769 21-119); experiment: flow cytometry, HEK-293
T2 construct: whole, on cells; also called HEK - CD1b
Procedure: (§2) CD1a-specific antibodies were identified by flow cytometry. Binding to proteins expressed on HEK, CIR and MOLT4 cell lines was assessed. […] The C1R-CD1a, C1R-empty vector and MOLT4 cell lines were washed in 1×PBS on the day required. All cell lines were counted and resuspended in 1×PBS and then stained for 30 minutes at 37° C. using the DiI or DiO cellular stains (Invitrogen). Cells were washed with flow cytometry buffer (1% bovine serum albumin, 2 mM EDTA and 0.1% sodium azide in PBS) before mixing 2 DiI-stained and DiO-stained populations together. The cells (20 μl/well) were then added to dilutions of antibody sample (B cell culture supernatant, TAP supernatant, clone supernatant, purified antibody solution) (20 μl/well) and incubated for 1 hour at 4° C. in a flow cytometry assay plate, before being washed with flow cytometry buffer. 10 μl/well of Alexafluor647-conjugated goat anti-species IgG Fc-specific F(ab′)2 fragment (Jackson ImmunoResearch), diluted 1:2500 in flow cytometry buffer, was added and incubated at 4° C. for 30 minutes, followed by washing with wash buffer. The fluorescence intensity was then measured on an iQue screener PLUS.
(§3) HEK-293 cells were transiently transfected with human CD1a, CD1b, CD1c or CD1d and co-transfected with human β2M.

[11] = target: T3, human CD1d expressed on HEK-293 cells (human, UniProt P15813 20-335; P61769 21-119); experiment: flow cytometry, HEK-293
T3 construct: whole, on cells; also called HEK - CD1d
Procedure: as §2, §3

[12] = target: T4, human CD1c expressed on HEK-293 cells (human, UniProt P29017 18-333; P61769 21-119); experiment: flow cytometry, HEK-293
T4 construct: whole, on cells; also called HEK - CD1c
Procedure: as §2, §3

[13] = target: Cynomolgus monkey CD1a protein (Cynomolgus monkey); experiment: ELISA, Ab 1 µg/ml
[14] = target: Cynomolgus monkey CD1a expressed on HEK-293 cells (Cynomolgus monkey); experiment: flow, HEK-293, Ab 1 µg/ml
[15] = target: Cynomolgus monkey CD1a protein (Cynomolgus monkey); experiment: ELISA, Ab 0.01 µg/ml
[16] = target: Cynomolgus monkey CD1a expressed on HEK-293 cells (Cynomolgus monkey); experiment: flow, HEK-293, Ab 0.01 µg/ml
[17] = target: Cynomolgus monkey CD1a expressed on HEK-293 cells (Cynomolgus monkey); experiment: flow, HEK-293, Ab 10 µg/ml
[18] = target: Cynomolgus monkey CD1a protein (Cynomolgus monkey); experiment: ELISA, Ab 10 µg/ml
[19] = target: Cynomolgus monkey CD1a protein (Cynomolgus monkey); experiment: ELISA, Ab 0.1 µg/ml
[20] = target: T1, Human CD1a/beta2m heterodimer (HEK293S, …); experiment: SPR (Biacore 3000): biotinylated OX116 scFv on a streptavidin chip, CD1a-SM24:1 (CD1a loaded with sphingomyelin 24:1) injected up to 1000 nM; 1:1 specific binding fit; unit from the legend paragraph 293
Procedure: as §1

[21] = target: T1, Human CD1a/beta2m heterodimer (HEK293S, …); experiment: SPR (Biacore 3000): biotinylated OX116 scFv on a streptavidin chip, CD1a-GD3 (CD1a loaded with GD3 ganglioside) injected up to 1000 nM; 1:1 specific binding fit; unit from the legend paragraph 293
Procedure: as §1

[22] = target: T1, Human CD1a/beta2m heterodimer (HEK293S, …); experiment: SPR (Biacore 3000): biotinylated OX116 scFv on a streptavidin chip, CD1a-endo (CD1a with endogenous lipids) injected up to 1000 nM; 1:1 specific binding fit; unit from the legend paragraph 293
Procedure: as §1

[23] = target: T1, Human CD1a/beta2m heterodimer (HEK293S, …); experiment: SPR (Biacore 3000): biotinylated OX116 scFv on a streptavidin chip, CD1a-LPC (CD1a loaded with lysophosphatidylcholine) injected up to 1000 nM; 1:1 specific binding fit; unit from the legend paragraph 293
Procedure: as §1

Molecule | Fluorescence Intensity Geomean (normalized to background) (fold over background) [9] | binding result [10] | binding result [11] | binding result [12] | Optical Density (OD) [13] [OD] | Fluorescence Intensity Geomean (normalized to background) (fold over background) [14] | Optical Density (OD) [15] [OD] | Fluorescence Intensity Geomean (normalized to background) (fold over background) [16] | Fluorescence Intensity Geomean (normalized to background) (fold over background) [17] | Optical Density (OD) [18] [OD] | Optical Density (OD) [19] [OD] | other results
HI149 (antibody) |  |  |  |  |  |  |  |  |  |  |  | CD1a+ (gate frequency, percent of plotted cells; unit not given) [1]: 82.2; CD1a+ (gate frequency, percent of plotted cells; unit not given) [2]: 46.6
SK9 (antibody) |  |  |  |  |  |  |  |  |  |  |  | CD1a+ (gate frequency, percent of plotted cells; unit not given) [3]: 87.4; CD1a+ (gate frequency, percent of plotted cells; unit not given) [4]: 84.9
B1 |  |  |  |  |  |  |  |  |  |  |  | Kd [5]: 1270 nM; Kd [6]: 1010 nM; Kd [7]: 476 nM; Kd [8]: 860 nM
B2 | 5.7 | no binding (tested: 100 µg/ml) | no binding (tested: 100 µg/ml) | no binding (tested: 100 µg/ml) | 0.43 | 10.6 | 0.1 | 1.7 | 1.4 | 0.52 | 0.24 | 
B3 | 25.8 | no binding (tested: 100 µg/ml) | no binding (tested: 100 µg/ml) | no binding (tested: 100 µg/ml) | 0.69 | 12.9 | 0.48 | 8.9 | 16.3 | 0.79 | 0.66 | 
B4 | 1 | no binding (tested: 100 µg/ml) | no binding (tested: 100 µg/ml) | no binding (tested: 100 µg/ml) | 0.14 | 0.8 | 0.07 | 1 | 1.7 | 0.16 | 0.07 | 
B5 | 3.3 | no binding (tested: 100 µg/ml) | no binding (tested: 100 µg/ml) | no binding (tested: 100 µg/ml) | 0.94 |  | 0.22 | 1.2 | 13.6 | 0.86 | 0.53 | 
B6 |  |  |  |  |  |  |  |  |  |  |  | Kd [20]: 529 nM; Kd [21]: 329 nM; Kd [22]: 483 nM; Kd [23]: 1520 nM
